The record followed here is publication PMC7073074 (2020).

In assay [1] the target is T1, rabbit muscle F-actin (Oryctolagus cuniculus (Rabbit), UniProt P68135). The assay is described as follows: F-actin co-sedimentation, Coomassie SDS-PAGE.
The target in assay [2] is T1, rabbit muscle F-actin. The assay is described as follows: F-actin co-sedimentation, Coomassie SDS-PAGE (apparent Kd given only as 8.9 µg, CI 5-20 µg); low ionic strength: co-pellets at 50 mM NaCl but not at 100 or 150 mM NaCl; polymerised (F-)actin.

B1: FLAG-tagged coronin A lacking the coiled coil (protein)
chain: MSKVVRSSKYRHVFAAQPKKEECYQNLKVTKSAWDSNYVAANTRYFGVIWDAAGGGSFAVIPHEASGKTTSVPLFNGHKSAVLDIAFHPFNENLVGSVSEDCNICIWGIPEGGLTDSISTPLQTLSGHKRKVGTISFNPVADNVAVTSSGDFLVKTWDVEQGKNLTTVEGHSDMITSCEWNHNGSQIVTTCKDKKARVFDPRTNSIVNEVVCHQGVKNSRAIFAKDKVITVGFSKTSERELHIYDPRAFTTPLSAQVVDSASGLLMPFYDADNSILYLAGKGDGNIRYYELVDESPYIHFLSEFKSATPQRGLCFLPKRCLNTSECEIARGLKVTPFTVEPISFRVPRKSDIFQDDIYPDTYAGEPSLTAEQWVSGTNAEPKTVSLAGGFVKKASAVEFKPVVQVQEGPKN
B1: the binding result with rabbit muscle F-actin [1] is “no binding”.

B2: FLAG-tagged coronin A (protein)
chain: MSKVVRSSKYRHVFAAQPKKEECYQNLKVTKSAWDSNYVAANTRYFGVIWDAAGGGSFAVIPHEASGKTTSVPLFNGHKSAVLDIAFHPFNENLVGSVSEDCNICIWGIPEGGLTDSISTPLQTLSGHKRKVGTISFNPVADNVAVTSSGDFLVKTWDVEQGKNLTTVEGHSDMITSCEWNHNGSQIVTTCKDKKARVFDPRTNSIVNEVVCHQGVKNSRAIFAKDKVITVGFSKTSERELHIYDPRAFTTPLSAQVVDSASGLLMPFYDADNSILYLAGKGDGNIRYYELVDESPYIHFLSEFKSATPQRGLCFLPKRCLNTSECEIARGLKVTPFTVEPISFRVPRKSDIFQDDIYPDTYAGEPSLTAEQWVSGTNAEPKTVSLAGGFVKKASAVEFKPVVQVQEGPKNEKELREEYEKLKIRVAYLESEIVKKDAKIKELTN
With B2, the binding result in the assay with rabbit muscle F-actin [2] is recorded as “binds”.
